Reference: patent US20210188989A1 (SYSTIMMUNE, published 2021)

T1: recombinant cynomolgus 4-1BB extracellular domain protein (cynomolgus, UniProt A9YYE7 24-186)
T1 construct: Analyte in the Octet assay
T1 sequence: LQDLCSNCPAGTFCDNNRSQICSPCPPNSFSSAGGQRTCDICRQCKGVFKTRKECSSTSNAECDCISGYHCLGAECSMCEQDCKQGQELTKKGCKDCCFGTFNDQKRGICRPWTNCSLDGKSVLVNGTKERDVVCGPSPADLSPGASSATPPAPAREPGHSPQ


Legend:
[1] = target: T1, recombinant cynomolgus 4-1BB …; experiment: Octet BLI; chimeric IgG from transfection supernatant on anti-human Fc biosensor; recombinant cynomolgus 41BB; column kdis(1/s) Cynomolgus
From the text: (§1) The heavy and light chain expression plasmids generated from each well were transiently co-transfected to produce rabbit/human chimeric antibodies. Recombinant antibody supernatants were confirmed to contain antibodies specific for human and cynomolgus 4-1BB using bio-layer interferometry analysis on a ForteBio Octet Red 96 instrument. Anti-human Fc biosensors (Pall ForteBio) were used to capture antibodies in the supernatants. Association to human or cynomolgus 4-1BB was observed by real-time interferometry by placing the biosensors in wells containing recombinant human or cynomolgus 4-1BB extracellular domain protein. Dissociation was measured after transfer of the biosensors into wells containing 10× kinetics buffer (Pall ForteBio). The software provided by the manufacturer was used to analyze the interferometry data. A summary of the primary BCC screening data and the corresponding screening data for 34 recombinant chimeric rabbit/human IgG antibodies is shown in FIG. 2.

[2] = target: T2, recombinant human 4-1BB extracellular domain protein (human, UniProt Q07011 24-186); experiment: Octet BLI; chimeric IgG from transfection supernatant on anti-human Fc biosensor; recombinant human 41BB; column kdis(1/s) Human
T2 construct: extracellular domain; Analyte in the Octet assay; also called CD137; TNFRSF9
From the text: as §1

Row | koff [1] [s⁻¹] | koff [2] [s⁻¹] | Binder
1 | 0.0026 | 0.0021 | 466F6 (antibody, human IgG1, kappa, V domains shown, one of the 34 chimeric antibodies; rabbit variable regions on human IgG1 and human kappa; also called 466F6 chimeric rabbit/human IgG) VH: RSLEESGGRLVTPGTPLTLTCTASGFTISSYHMQWVRQAPGKGLEYIGTISSGGNVYYASWARGRFTISRPSSTTVDLKMTSLTTEDTATYFCARDSGYSDPMWGPGTLVTVSS VL: DVVMTQTPASVSEPVGGTVTIKCQASQNIRTYLSWYQQKPGQRPKLLIYAAANLASGVPSRFSGSRSGTEFTLTISDLECADAATYYCQCTYLGTDYVGGAFGGGTEVEFKR
2 | 0.0014 | 0.001 | 470C6 (antibody, human IgG1, kappa, V domains shown, one of the 34 chimeric antibodies; rabbit variable regions on human IgG1 and human kappa; also called 470C6 chimeric rabbit/human IgG) VH: QSLEEAGGDLVKPGASLTLTCTASGFSFTSSYYMCWVRQAPGKGLEWIACIYTGSSGSTYYANWAKGRFTISKTSSTTVTLQMTSLTAADTATYFCARDSSSYYMFNLWGQGTLVTVSS VL: ALVMTQTPASVSAAVGGTVTINCQASEDIDNYLAWYQQKPGQPPKLLIFYASDLASGVPSRFSGSGSGTQFTLTISGVQCDDAATYYCQGGYYTSSTDTRGAFGGGTEVVVKR

Second part, the binder before the results:

Row | Binder | koff [1] [s⁻¹] | koff [2] [s⁻¹]
3 | 413F3 (antibody, human IgG1, kappa, V domains shown, one of the 34 chimeric antibodies; rabbit variable regions on human IgG1 and human kappa; also called 413F3 chimeric rabbit/human IgG) VH: QSLEESGGDLVKPEGSLTLTCTGSGIDFSSNYMCWVRQAPGKGLEWIACIYGDSSDNSYSASWAKGRFTISKTSSTTVTLQMTSLTAADTATYFCARSGYSYLGYFNLWGPGTLVTVSS VL: DVVMTQTPASVEAAVGGTVTIKCQASQSIYSNLAWYQQKPGQPPKLLIYSTSTLASGVPSRFSGSGSGTEFTLTISDLECADAATYYCQNYYGSSTDSYGNPFGGGTEVVFKR | 0.00079 | 0.00054
4 | 411H11 (antibody, human IgG1, kappa, V domains shown, one of the 34 chimeric antibodies; rabbit variable regions on human IgG1 and human kappa; also called 411H11 chimeric rabbit/human IgG) VH: QSVEESGGRLVTPGTPLTLTCTVSGFTISSHHMIWVRQAPGEGLQYIGFINDGDYTYYTNWAKGRFTISRTSTTVDLKMTSLTAADTATYFCARGVDGTSYPGLWGPGTLVTVSS VL: DVVMTQTPASVSEPVRATVTIKCQASQSIGADLAWYQQKPGQPPKLLIYRASTLASGVPSRFSGSGSGTEFTLTISDLECADAATYYCQCIYYGTDDVIYHTFGGGTEVVFKR | 0.0015 | 0.001
5 | 416F8 (antibody, human IgG1, kappa, V domains shown, one of the 34 chimeric antibodies; rabbit variable regions on human IgG1 and human kappa; also called 416F8 chimeric rabbit/human IgG) VH: QSLEESGGRLVTPGTPLTLTCTASGFSLSNYYMNWVRQAPGKGLEYIGIISSSGSAYYASWAKGRFTISRTSTTVDLRITSPTTEDTATYFCARGDYGMDLWGQGTLVTVSS VL: AQVLTQTASSVSAPVGGTVTISCQSSQTVYNNNLLSWYQQKPGQRPKLLIYYASTLAFGVPSRFKGSGSGTEFTLTISDLECDDAATYFCQGGYSGWIYVFGGGTEVEVKR | 0.003 | 0.0043
6 | 420H5 (antibody, human IgG1, kappa, V domains shown, one of the 34 chimeric antibodies; rabbit variable regions on human IgG1 and human kappa; also called 420H5 chimeric rabbit/human IgG) VH: QSLEESGGDLVKPGASLTLTCTASGFSFSSNYWICWVRQAPGKGLEWIACIYVGSSGDTYYASWAKGRFTISKTSSTTVTLQMTSLTAADTATYFCARDSSSYYMFNLWGQGTLVTVSS VL: ALVMTQTPASVSAAVGGTVTINCQASEDIDTYLAWYQQKPGQPPKLLIFYASDLASGVPSRFKGSGSGTEFTLTISGVQCDDAATYYCQGGYYTSSADTRGAFGGGTEVVVKR | 0.0023 | 0.0013
